Data as given in patent US20250333514A1 (CDR LIFE, published 2025).
Like-named read-outs stand apart in the source and are kept apart here.

How the values were obtained:
Experiment in all cases: SPR (Biacore 8K), pMHC captured, Fab-scFv analyte
[1] = target: T1, HLA-A*02:01/PRAME antigen (recombinant, … on HLA-A*02:01) (human, Complex biotinylated for SPR capture; site of biotin and any tag not stated, not in the letters.)
T1 construct: also called PRAME target; pMHC
Experimental: (§1) Recombinantly produced hits in Fab-scFv format, as described in Example 4, were evaluated for their ability to bind HLA-A*02:01/PRAME antigen. Binding characterization was performed by surface plasmon resonance (SPR) using a Biacore™ 8k (Cytiva) device. Briefly, 3000 RU of Biotin CAPture reagent (Cytiva) was immobilized on a Series S Sensor Chip CAP (Cytiva) and the biotinylated ligand HLA-A*02:01/PRAME (SEQ ID NO: 68) was diluted in HPS-EP+ running buffer (TEKNOVA) and captured for 300 s at a flow rate of 2 μL/min at flow cell 2 resulting in a ligand capture level of >100 RU. Subsequently, at least three consecutive analyte injections were performed at suitable concentrations applying the single-cycle-kinetics mode at a flow rate of 30 μL/min with an association time of 90 s and the dissociation time set to >400 s. The chip surface was regenerated according to the manufacturer's instructions. After reference flow cell signal and blank injections subtraction, the data was fit to a 1:1 Langmuir binding model to determine the association rate constant kₐ and dissociation rate constant kd and calculate the equilibrium dissociation constant KD (kd/kₐ), also denoted as affinity, using the Biacore™ Insight Evaluation software.
(§2) The molecular recognition profile of monovalent (Fab-scFv) antigen binding molecules M3076 and M3287 for HLA-A*02:01/PRAME binding (equivalent bivalent (Fab-(scFv)₂) antigen binding molecules are M3167 and M3292, respectively) were determined by SPR measurements with HLA-A*02:01 complexes loaded with PRAME peptide or peptides containing a single amino acid substitution to alanine, arginine or aspartic acid. The kinetic parameters for each HLA-A*02:01 complex loaded with a peptide was determined by SPR, according to the previously described method in Example 5.

[2] = target: HLA-A*02:01 loaded with PRAME peptide L2R (human, Non-covalent three-chain complex; biotinylated for capture on the chip, site or tag of biotinylation not stated.)
Experimental: as §1, §2

[3] = target: HLA-A*02:01 loaded with PRAME peptide S1R (human, Non-covalent three-chain complex; biotinylated for capture on the chip, site or tag of biotinylation not stated.)
Experimental: as §1, §2

[4] = target: HLA-A*02:01 loaded with PRAME peptide L6R (human, Non-covalent three-chain complex; biotinylated for capture on the chip, site or tag of biotinylation not stated.)
Experimental: as §1, §2

[5] = target: HLA-A*02:01 loaded with PRAME peptide H5R (human, Non-covalent three-chain complex; biotinylated for capture on the chip, site or tag of biotinylation not stated.)
Experimental: as §1, §2

[6] = target: HLA-A*02:01 loaded with PRAME peptide L9R (human, pMHC ligand was biotinylated for capture (Example 5); site or tag of biotinylation not disclosed)
Experimental: as §1, §2

[7] = target: HLA-A*02:01 loaded with PRAME peptide G8R (human, pMHC ligand was biotinylated for capture (Example 5); site or tag of biotinylation not disclosed)
Experimental: as §1, §2

[8] = target: HLA-A*02:01 loaded with PRAME peptide I7R (human, pMHC ligand was biotinylated for capture (Example 5); site or tag of biotinylation not disclosed)
Experimental: as §1, §2

[9] = target: HLA-A*02:01 loaded with PRAME peptide L3R (human, Non-covalent three-chain complex; biotinylated for capture on the chip, site or tag of biotinylation not stated.)
Experimental: as §1, §2

[10] = target: HLA-A*02:01 loaded with PRAME peptide Q4R (human, Non-covalent three-chain complex; biotinylated for capture on the chip, site or tag of biotinylation not stated.)
Experimental: as §1, §2

[11] = target: T1, HLA-A*02:01/PRAME antigen (recombinant, …); remark: listed apart in the source
Experimental: as §1, §2

[12] = target: HLA-A*02:01 loaded with PRAME peptide L6A (human, Complex captured as in Example 5 (biotinylated ligand); biotin site or tag not stated, not in the letters.)
Experimental: as §1, §2

[13] = target: HLA-A*02:01 loaded with PRAME peptide Q4A (human, Complex captured as in Example 5 (biotinylated ligand); biotin site or tag not stated, not in the letters.)
Experimental: as §1, §2

[14] = target: HLA-A*02:01 loaded with PRAME peptide S1A (human, Complex captured as in Example 5 (biotinylated ligand); biotin site or tag not stated, not in the letters.)
Experimental: as §1, §2

[15] = target: HLA-A*02:01 loaded with PRAME peptide G8A (human, Non-covalent three-chain complex; biotinylated for capture on the chip, site or tag of biotinylation not stated.)
Experimental: as §1, §2

[16] = target: HLA-A*02:01 loaded with PRAME peptide L3A (human, Complex captured as in Example 5 (biotinylated ligand); biotin site or tag not stated, not in the letters.)
Experimental: as §1, §2

[17] = target: HLA-A*02:01 loaded with PRAME peptide L9A (human, Non-covalent three-chain complex; biotinylated for capture on the chip, site or tag of biotinylation not stated.)
Experimental: as §1, §2

B1: M3076 (bispecific antibody)
heavy: EVQLVESGGGLVQPGGSLRLSCAASGFTFSTYAMNWVRQAPGKGLEWVGRIRSKYNNYATYYADSVKGRFTISRDDSKNTLYLQMNSLRAEDTAVYYCVRHGNFGDSYVSWFAYWGQGTLVTVSSASTKGPSVFPLAPSSKSTSGGTAALGCLVKDYFPEPVTVSWNSGALTSGVHTFPAVLQSSGLYSLSSVVTVPSSSLGTQTYICNVNHKPSNTKVDKKVEPKSCGGGGSDIQMTQSPSSLSASVGDRVTITCRSSQSVYNNLLGWYQQKPGKAPKLLIYSASTLASGVPSRFSGSGSGTDFTLTISSLQPEDFATYYCQGTYYNGDWYYPFGCGTKVEIKGGGGSGGGGSGGGGSGGGGSQVQLVESGGGSVQPGRSLRLSCAASGFDFSTYGVSWVRQAPGKCLEWIGYIDPVYGSTHYADSVKGRFTISRDNSKNTLYLQMNSLRAEDTASYYCVRDLYAGSSGYYMIYSLWGQGTSVTVSS
light: QAVVTQEPSLTVSPGGTVTLTCGSSTGAVTTSNYANWVQQKPGKSPRGLIGGTNKRAPGVPARFSGSLLGGKAALTISGAQPEDEADYYCALWYSNHWVFGGGTKLTVLGQPKAAPSVTLFPPSSEELQANKATLVCLISDFYPGAVTVAWKADSSPVKAGVETTTPSKQSNNKYAASSYLSLTPEQWKSHRSYSCQVTHEGSTVEKTVAPTECS
notes: Humanized variant of M2638, monovalent Fab-scFv; bivalent equivalent is M3167
Kd [1]: 0.08 nM | Kd [2]: 0.04 nM | Kd [3]: 0.08 nM | binding result [4]: no binding | Kd [5]: 93 nM | Kd [6]: 1.4 nM | binding result [7]: no binding | Kd [8]: 18 nM | Kd [9]: 1 nM | Kd [10]: 0.08 nM | Kd [11]: 0.08 nM | Kd [12]: 15 nM | Kd [13]: 0.18 nM | Kd [14]: 0.09 nM | Kd [15]: 0.77 nM | Kd [16]: 0.19 nM | Kd [17]: 1.7 nM

B2: M3287 (bispecific antibody)
heavy: EVQLVESGGGLVQPGGSLRLSCAASGFTFSTYAMNWVRQAPGKGLEWVGRIRSKYNNYATYYADSVKGRFTISRDDSKNTLYLQMNSLRAEDTAVYYCVRHGNFGDSYVSWFAYWGQGTLVTVSSASTKGPSVFPLAPSSKSTSGGTAALGCLVKDYFPEPVTVSWNSGALTSGVHTFPAVLQSSGLYSLSSVVTVPSSSLGTQTYICNVNHKPSNTKVDKKVEPKSCGGGGSDIQMTQSPSSLSASVGDRVTITCRSSQSVYNNLLGWYQQKPGKAPKLLIYSASTLASGVPSRFSGSGSGTDFTLTISSLQPEDSATYYCQGTYYTGDWYYPFGCGTKVEIKGGGGSGGGGSGGGGSGGGGSQVQLVESGGGSVQPGRSLRLSCAASGFDFSTYGVSWVRQAPGKCLEWIGYIDPVYGSTHYADSVKGRFTISRDNSKNTLYLQMNSLRAEDTASYYCVRDLYAGSSGYYVIYSLWGQGTSVTVSS
light: QAVVTQEPSLTVSPGGTVTLTCGSSTGAVTTSNYANWVQQKPGKSPRGLIGGTNKRAPGVPARFSGSLLGGKAALTISGAQPEDEADYYCALWYSNHWVFGGGTKLTVLGQPKAAPSVTLFPPSSEELQANKATLVCLISDFYPGAVTVAWKADSSPVKAGVETTTPSKQSNNKYAASSYLSLTPEQWKSHRSYSCQVTHEGSTVEKTVAPTECS
notes: Humanized variant of M2638, monovalent Fab-scFv; bivalent equivalent is M3292
Kd [1]: 0.57 nM | Kd [2]: 0.31 nM | Kd [3]: 0.57 nM | binding result [4]: no binding | binding result [5]: no binding | Kd [6]: 6.1 nM | binding result [7]: no binding | Kd [8]: 83 nM | Kd [9]: 9.2 nM | Kd [10]: 0.49 nM | Kd [11]: 0.57 nM | Kd [12]: 67 nM | Kd [13]: 1.2 nM | Kd [14]: 1.1 nM | Kd [15]: 9.8 nM | Kd [16]: 1.6 nM | Kd [17]: 18 nM
